US20150104459A1 (published 2015)

Molecular target: Hemagglutinin of influenza A/Solomon Islands/3/06 (H1N1) on whole virions (Influenza A virus A/Solomon …)
Test: cell-based or functional assay

B1: TCN-533 (5256_A17) (antibody, V domains shown)
VH: QVQLVQSGADVKKPGSSVTVSCKASGGSFSNYGINWVRQAPGQGLEWMGGIIPLINAPNYAPKFQGRVTITADMFSNIVSLQLTSLRTDDTAVYYCARRKMTTAIDYWGQGTLVTVSS
VL: QPVLSQPPSASASLGASVTLTCTLSSGFDNYQVAWYQQRPGKGPRFVMRVGNGGNVASKGDGIPDRFSVSGSGLNRYLTIKNIQEDDESDYYCGADHGSGNNFVSPYVFGGGTKLTVL
With B1 the “% Neutralization” value was 56%.

B2: TCN-528 (5087_P17) (antibody, V domains shown)
VH: QVQLVQSGSEVKKPGASVKVSCKASGYTFTNYDINWIRQAPGQGLEWMGWINPNSGTTGSAQRFQGRVTITVDTSITTVYMELSSLRSDDTAIYYCARGRELLRLQHFLTDSQSERRDCFDPWGQGTLVTVSS
VL: DIQMTQSPSSLSASVGDRVTITCRANQDIGIYLNWYQQNPGKVPKLLLHGASSLQGGVPSRFSASGSGTDFTLTIHSLQPEDLATYYCQQSRRLPYTFGQGTRVELK
In the case of B2, the “% Neutralization” value is reported as 0%.

B3: TCN-529 (5297_H01) (antibody, V domains shown)
VH: QITLRESGPTLVKPTQTLTLTCTFSGFSLSTNGVNVGWIRQPPGKALEWLALIYWDDDKRYSPSLKRRLTITKDTSKNQVVLTLTNMDPVDTATYYCAHRPDFYGDFEYWGPGTLVTVSS
VL: QSALTQPASVSGSPGQSITISCTGSSSDIGGYNYVSWYQQHPGKAPKLMIYDVNNRPSGVSNRFSGSKSGNTASLTISGLQTDDEADYYCGSYTGSPHYVFGTGTKVTVL
With B3 the “% Neutralization” value was 0%.

B4: TCN-527 (5086_C06) (antibody, V domains shown)
VH: QVQLQESGPGLVKPSETLSLNCAVSGGSISNYYWSWIRQPPGKGLEWIGYISYNGRPKYNPSLTSRVTISVDTSKDQFSLELRSVTAADTALYYCARETRFGELLSPYDAFEIWGQGTMVTVSS
VL: DIQMTQSPSSLSASVGDRVTMTCRASQNIRSYLNWYQQRPGTAPKLLIYAASTLHSGVPSRFSGGGSGTDFTLTINNLQPEDFASYYCQQSYDNPQTFGQGTKVEIK
B4 was tested, and the “% Neutralization” value was 12%.

B5: TCN-530 (5248_H10a) (antibody, V domains shown)
VH: QVQLVQSGAEVRKPGSSVKVSCKASGGPFMSYAIGWVRQAPGQGLEWMGGINPVFGRPHYAQKFQGRVTIATDDSTKTSYMELSSLTSEDTGMYYCASRYSRSSPGTFESWGQGTLVTVSS
VL: EIVMTQFPATLSVSPGERVTLSCRASQSVSNNLAWYQQKPGQPPRLLIYDASTRATGVPAKFSGTGSGTEFTLSISSLQSEDFAVYYCQQYHNWPPSYSFGLGTKLEIK
With B5 the “% Neutralization” value was 64%.

B6: TCN-526 (5084_C17) (antibody, V domains shown)
VH: EVLMVESGGGLVQPGGSVRLSCVASGFSFSSHWMTWVRQAPGKGLEWVANIEDDGGDKYYVDSVKGRFIISRDNAKNSVYLQMNSLRAEDTAVYFCARGSGSSDRSDYDPHYYYYLDVWGKGATVTVSS
VL: DIQLTQSPSSLSASVGDRVTITCRASQSISRYLNWYQQKPGKAPKLLLFAASTLLDGVPSRFSGSGSGTDFTLTISSLQPEDFATYYCQRNHSPSWTFGQGTRVEIK
For B6, the “% Neutralization” value was 0%.

B7: TCN-532 (5262_H18) (antibody, V domains shown)
VH: QVQLQESGPGLVKPSETLSLTCTVSGGSVSSETYYWSWIRQPPGKGLEWIGYIYYIGNTDYRPSLKSRVTISLDTSKNQFSLKLSSVTAADTAVYYCARGAYYDSSGYPAFYIWGQGTMVTVSS
VL: QSVLTQPPSVSGAPGQRVTISCTGSSSNIGSDYDVHWYKQLPGTAPKLLIFGNSNRPSGVPDRFSGSKSGTSASLAITGLQAEDEADYYCQSYDSSLSGFHVFGSGTKVTVL
With B7 the “% Neutralization” value was 11%.

B8: TCN-531 (5091_H13) (antibody, V domains shown)
VH: EVQLVESGGDLVQPGRSLKLSCTGSGFTFGDYGVTWVRQAPGKGLEWVGFIRTRPWGGTADTAASVKGRFTISRDDSKSLAYLQMNSLKTEDTAVYYCCRDAPPNVEVASMTNWYFDLWGRGTLVTVSS
VL: DIQLTQSPSSLSASVGDRVTITCRASQGILNCLAWYQQKPGKVPNLLMYAASTLQSGVPSRFSGSGFGTDFTLTISSLQPEDVATYYCQTYGGVSTFGGGTKVEIR
With B8 the “% Neutralization” value was 65%.
